T1: human BCMA on Flp-inCHO-human BCMA cells (human, UniProt Q02223 1-184)
T1 construct: whole, on cells
T1 sequence (looked up): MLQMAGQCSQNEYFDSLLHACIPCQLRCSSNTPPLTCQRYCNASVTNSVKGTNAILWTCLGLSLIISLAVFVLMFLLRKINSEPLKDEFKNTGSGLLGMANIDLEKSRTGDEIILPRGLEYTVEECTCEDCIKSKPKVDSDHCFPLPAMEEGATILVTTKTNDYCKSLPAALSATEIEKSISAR


How the values were obtained:
[1] = target: T2, monkey CD3 on activated monkey PBMC (monkey); assay: FACS, activated monkey PBMC
T2 construct: whole, on cells

[2] = target: T3, human GPRC5D on CHOK1-human GPRC5D cells (human, UniProt Q9NZD1 1-345); assay: FACS, CHOK1-human GPRC5D cells
T3 construct: whole, on cells

[3] = target: T1, human BCMA on Flp-inCHO-human BCMA cells; assay: FACS, Flp-inCHO-human BCMA cells

T3 sequence (Q9NZD1 whole entry): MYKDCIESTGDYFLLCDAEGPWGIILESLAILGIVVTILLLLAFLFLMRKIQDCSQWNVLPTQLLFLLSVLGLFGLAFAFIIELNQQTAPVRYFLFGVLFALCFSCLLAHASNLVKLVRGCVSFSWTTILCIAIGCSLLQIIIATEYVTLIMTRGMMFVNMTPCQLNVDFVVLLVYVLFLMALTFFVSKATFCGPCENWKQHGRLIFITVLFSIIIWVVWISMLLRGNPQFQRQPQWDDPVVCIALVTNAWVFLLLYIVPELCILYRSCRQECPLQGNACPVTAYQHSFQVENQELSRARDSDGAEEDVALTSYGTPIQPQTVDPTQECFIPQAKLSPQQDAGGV
T2 sequence (Q95LI5 22-198): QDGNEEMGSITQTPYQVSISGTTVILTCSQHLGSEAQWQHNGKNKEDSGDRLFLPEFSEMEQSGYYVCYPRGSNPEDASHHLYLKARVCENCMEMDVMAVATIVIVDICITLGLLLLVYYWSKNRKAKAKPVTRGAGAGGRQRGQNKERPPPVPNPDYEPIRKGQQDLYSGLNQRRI

Binder	Maximum mean fluorescence intensity [1]	EC50 [2]	EC50 [3]
Tri-17 (trispecific antibody, V domains shown) VHH: EVQLVESGGGLVQPGGSLRLSCSASGFTLDYYMIGWFRQAPGKEREGLSSISPADGSTYYADSVKGRFTISRDSSKNTVYLQMNSLRAEDTAVYYCAAGNEATISWGFGPWEYDYWGQGTMVTVSS VH 1: EVQLVQSGAEVKKPGSSVKVSCKASGYTFTSYGISWVRQAPGQGLEWMGEIYPRSGNTYYNEKFKGRVTLTADKSTSTAYMELSSLRSEDTAVYYCARGRAYGRNYPMDYWGQGTTVTVSS VL 1: EIVLTQSPATLSLSPGERATLSCRASQSIGTSIHWYQQKPGQSPRLLIKYASESISGIPARFSGSGSGTDFTLTISSLEPEDFAVYYCQQSNSWPYTFGGGTKVEIK VH 2: EVQLVESGGGVVQPGRSLRLSCAASGFTFTDYYMSWVRQAPGKGLEWVAMSRNKAKGHTIEYSSSVKGRFTISRDNSKNTLYLQMNSLRAEDTAVYYCARDTYESYDGYFDVWGQGTTVTVSS VL 2: DIVMTQSPDSLAVSLGERATINCKSSQSLFNSRSRKNYLAWYQQKPGQTPKLLIYWASIRESGVPDRFSGSGSGTDFTLTISSLQAEDVAVYYCKQSYYLYTFGQGTKLEIK	3280	0.69 nM	2.97 nM
Tri-52 (trispecific antibody, V domains shown) VHH: EVQLVESGGGLVQPGGSLRLSCAASESISSIHIMAWYRQAPGKQRELVAGIRNDGSTVYVDSVKGRFTISRDNAKNSLYLQMNSLRAEDTAVYYCNADQGFGSYSEWERRSRWGQGTTVTVSS VH 1: EVQLVQSGAEVKKPGSSVKVSCKASGYTFTSYGISWVRQAPGQGLEWMGEIYPRSGNTYYNEKFKGRVTLTADKSTSTAYMELSSLRSEDTAVYYCARGRAYGRNYPMDYWGQGTTVTVSS VL 1: EIVLTQSPATLSLSPGERATLSCRASQSIGTSIHWYQQKPGQSPRLLIKYASESISGIPARFSGSGSGTDFTLTISSLEPEDFAVYYCQQSNSWPYTFGGGTKVEIK VH 2: EVQLVESGGGVVQPGRSLRLSCAASGFTFTDYYMSWVRQAPGKGLEWVAMSRNKAKGHTIEYSSSVKGRFTISRDNSKNTLYLQMNSLRAEDTAVYYCARDTYESYDGYFDVWGQGTTVTVSS VL 2: DIVMTQSPDSLAVSLGERATINCKSSQSLFNSRSRKNYLAWYQQKPGQTPKLLIYWASIRESGVPDRFSGSGSGTDFTLTISSLQAEDVAVYYCKQSYYLYTFGQGTKLEIK	693	2.97 nM	1.88 nM
Tri-46 (trispecific antibody, V domains shown) VHH: EVQLVESGGGLVQPGGSLRLSCAASESISSIHIMAWYRQAPGKQRELVAGIRNDGSTVYVDSVKGRFTISRDNAKNSLYLQMNSLRAEDTAVYYCNADQGFGSYSEWERRSRWGQGTTVTVSS VH 1: EVQLVQSGAEVKKPGSSVKVSCKASGYTFTSYGISWVRQAPGQGLEWMGEIYPRSGNTYYNEKFKGRVTLTADKSTSTAYMELSSLRSEDTAVYYCARGRAYGRNYPMDYWGQGTTVTVSS VL 1: EIVLTQSPATLSLSPGERATLSCRASQSIGTSIHWYQQKPGQSPRLLIKYASESISGIPARFSGSGSGTDFTLTISSLEPEDFAVYYCQQSNSWPYTFGGGTKVEIK VH 2: EVQLVESGGGVVQPGRSLRLSCAASGFTFTDYYMSWVRQAPGKGLEWVAMSRNKAKGHTIEYSSSVKGRFTISRDNSKNTLYLQMNSLRAEDTAVYYCARDTYESYDGYFDVWGQGTTVTVSS VL 2: DIVMTQSPDSLAVSLGERATINCKSSQSLFNSRSRKNYLAWYQQKPGQTPKLLIYWASIRESGVPDRFSGSGSGTDFTLTISSLQAEDVAVYYCKQSYYLYTFGQGTKLEIK	416	2.36 nM	5.19 nM
Tri-65 (trispecific antibody, V domains shown) VHH: EVQLVESGGGLVQPGGSLRLSCAASESISSIHIMAWYRQAPGKQRELVAGIRNDGSTVYVDSVKGRFTISRDNAKNSLYLQMNSLRAEDTAVYYCNADQGFGSYSEWERRSRWGQGTTVTVSS VH 1: EVQLVQSGAEVKKPGASVKVSCKTSGYIFTNFGITWVRQAPGQRLEWMGENYPRRINTYYNEKFKGRVTITADKSASTAYMELSSLRSEDTAVYYCSRKDIFGLSYALDYWGQGTTVTVSS VL 1: DIQMTQSPSSLSASVGDRVTITCKASQNVGTNVAWYQHKPGKSPKALIYSASYQYSGVPSRFSGSGSGTDFTLTISSLQPEDVATYICQQYKNYPYTFGGGTKVEIK VH 2: EVQLVESGGGVVQPGRSLRLSCAASGFTFTDYYMSWVRQAPGKGLEWVAMSRNKAKGHTIEYSSSVKGRFTISRDNSKNTLYLQMNSLRAEDTAVYYCARDTYESYDGYFDVWGQGTTVTVSS VL 2: DIVMTQSPDSLAVSLGERATINCKSSQSLFNSRSRKNYLAWYQQKPGQTPKLLIYWASIRESGVPDRFSGSGSGTDFTLTISSLQAEDVAVYYCKQSYYLYTFGQGTKLEIK	377	1.66 nM	2.54 nM
Tri-64 (trispecific antibody, V domains shown) VHH: EVQLVESGGGLVQPGGSLRLSCAASESISSIHIMAWYRQAPGKQRELVAGIRNDGSTVYVDSVKGRFTISRDNAKNSLYLQMNSLRAEDTAVYYCNADQGFGSYSEWERRSRWGQGTTVTVSS VH 1: EVQLVQSGAEVKKPGSSVKVSCKASGYTFTSYGISWVRQAPGQGLEWMGEIYPRSGNTYYNEKFKGRVTLTADKSTSTAYMELSSLRSEDTAVYYCARGRAYGRNYPMDYWGQGTTVTVSS VL 1: EIVLTQSPATLSLSPGERATLSCRASQSIGTSIHWYQQKPGQSPRLLIKYASESISGIPARFSGSGSGTDFTLTISSLEPEDFAVYYCQQSNSWPYTFGGGTKVEIK VH 2: EVQLVESGGGVVQPGRSLRLSCAASGFTFTDYYMSWVRQAPGKGLEWVAMSRNKAKGHTIEYSSSVKGRFTISRDNSKNTLYLQMNSLRAEDTAVYYCARDTYESYDGYFDVWGQGTTVTVSS VL 2: DIVMTQSPDSLAVSLGERATINCKSSQSLFNSRSRKNYLAWYQQKPGQTPKLLIYWASIRESGVPDRFSGSGSGTDFTLTISSLQAEDVAVYYCKQSYYLYTFGQGTKLEIK	348	3.63 nM	1.08 nM
Tri-38 (trispecific antibody, V domains shown) VHH: EVQLVESGGGLVQPGGSLRLSCSASGFTLDYYMIGWFRQAPGKEREGLSSISPADGSTYYADSVKGRFTISRDSSKNTVYLQMNSLRAEDTAVYYCAAGNEATISWGFGPWEYDYWGQGTMVTVSS VH 1: EVQLVQSGAEVKKPGSSVKVSCKASGYTFTSYGISWVRQAPGQGLEWMGEIYPRSGNTYYNEKFKGRVTLTADKSTSTAYMELSSLRSEDTAVYYCARGRAYGRNYPMDYWGQGTTVTVSS VL 1: EIVLTQSPATLSLSPGERATLSCRASQSIGTSIHWYQQKPGQSPRLLIKYASESISGIPARFSGSGSGTDFTLTISSLEPEDFAVYYCQQSNSWPYTFGGGTKVEIK VH 2: EVQLVESGGGVVQPGRSLRLSCAASGFTFTDYYMSWVRQAPGKGLEWVAMSRNKAKGHTIEYSSSVKGRFTISRDNSKNTLYLQMNSLRAEDTAVYYCARDTYESYDGYFDVWGQGTTVTVSS VL 2: DIVMTQSPDSLAVSLGERATINCKSSQSLFNSRSRKNYLAWYQQKPGQTPKLLIYWASIRESGVPDRFSGSGSGTDFTLTISSLQAEDVAVYYCKQSYYLYTFGQGTKLEIK	1440	2.06 nM	4.43 nM
Tri-56 (trispecific antibody, V domains shown) VHH: EVQLVESGGGLVQPGGSLRLSCAASESISSIHIMAWYRQAPGKQRELVAGIRNDGSTVYVDSVKGRFTISRDNAKNSLYLQMNSLRAEDTAVYYCNADQGFGSYSEWERRSRWGQGTTVTVSS VH 1: EVQLVQSGAEVKKPGSSVKVSCKASGYTFTSYGISWVRQAPGQGLEWMGEIYPRSGNTYYNEKFKGRVTLTADKSTSTAYMELSSLRSEDTAVYYCARGRAYGRNYPMDYWGQGTTVTVSS VL 1: EIVLTQSPATLSLSPGERATLSCRASQSIGTSIHWYQQKPGQSPRLLIKYASESISGIPARFSGSGSGTDFTLTISSLEPEDFAVYYCQQSNSWPYTFGGGTKVEIK VH 2: EVQLVESGGGVVQPGRSLRLSCAASGFTFTDYYMSWVRQAPGKGLEWVAMSRNKAKGHTIEYSSSVKGRFTISRDNSKNTLYLQMNSLRAEDTAVYYCARDTYESYDGYFDVWGQGTTVTVSS VL 2: DIVMTQSPDSLAVSLGERATINCKSSQSLFNSRSRKNYLAWYQQKPGQTPKLLIYWASIRESGVPDRFSGSGSGTDFTLTISSLQAEDVAVYYCKQSYYLYTFGQGTKLEIK	575	0.38 nM	1.3 nM
Tri-66 (trispecific antibody, V domains shown) VHH: EVQLVESGGGLVQPGGSLRLSCAASESISSIHIMAWYRQAPGKQRELVAGIRNDGSTVYVDSVKGRFTISRDNAKNSLYLQMNSLRAEDTAVYYCNADQGFGSYSEWERRSRWGQGTTVTVSS VH 1: EVQLVQSGAEVKKPGASVKVSCKTSGYIFTNFGITWVRQAPGQRLEWMGENYPRRINTYYNEKFKGRVTITADKSASTAYMELSSLRSEDTAVYYCSRKDIFGLSYALDYWGQGTTVTVSS VL 1: DIQMTQSPSSLSASVGDRVTITCKASQNVGTNVAWYQHKPGKSPKALIYSASYQYSGVPSRFSGSGSGTDFTLTISSLQPEDVATYICQQYKNYPYTFGGGTKVEIK VH 2: EVQLVESGGGVVQPGRSLRLSCAASGFTFTDYYMSWVRQAPGKGLEWVAMSRNKAKGHTIEYSSSVKGRFTISRDNSKNTLYLQMNSLRAEDTAVYYCARDTYESYDGYFDVWGQGTTVTVSS VL 2: DIVMTQSPDSLAVSLGERATINCKSSQSLFNSRSRKNYLAWYQQKPGQTPKLLIYWASIRESGVPDRFSGSGSGTDFTLTISSLQAEDVAVYYCKQSYYLYTFGQGTKLEIK	345	1.53 nM	1.09 nM
Tri-63 (trispecific antibody, V domains shown) VHH: EVQLVESGGGLVQPGGSLRLSCAASESISSIHIMAWYRQAPGKQRELVAGIRNDGSTVYVDSVKGRFTISRDNAKNSLYLQMNSLRAEDTAVYYCNADQGFGSYSEWERRSRWGQGTTVTVSS VH 1: EVQLVQSGAEVKKPGSSVKVSCKASGYTFTSYGISWVRQAPGQGLEWMGEIYPRSGNTYYNEKFKGRVTLTADKSTSTAYMELSSLRSEDTAVYYCARGRAYGRNYPMDYWGQGTTVTVSS VL 1: EIVLTQSPATLSLSPGERATLSCRASQSIGTSIHWYQQKPGQSPRLLIKYASESISGIPARFSGSGSGTDFTLTISSLEPEDFAVYYCQQSNSWPYTFGGGTKVEIK VH 2: EVQLVESGGGVVQPGRSLRLSCAASGFTFTDYYMSWVRQAPGKGLEWVAMSRNKAKGHTIEYSSSVKGRFTISRDNSKNTLYLQMNSLRAEDTAVYYCARDTYESYDGYFDVWGQGTTVTVSS VL 2: DIVMTQSPDSLAVSLGERATINCKSSQSLFNSRSRKNYLAWYQQKPGQTPKLLIYWASIRESGVPDRFSGSGSGTDFTLTISSLQAEDVAVYYCKQSYYLYTFGQGTKLEIK	434	3.8 nM	2.1 nM

Reference: patent EP4538294A1 (Shandong Simcere Biopharmaceutical Co., Ltd., dated 2025)
